# Measured values as given in patent US20060171977A1, “Methods for the identification of fungicidally active compounds based on thymidylate kinase” (priority 2004, published 2006).
# Tests used:
# [1] = substrate: Cc1cn([C@H]2C[C@H](O)[C@@H](COP(=O)(O)O)O2)c(=O)[nH]c1=O; assay: KM determination of thymidylate kinase substrates (coupled PK/LDH assay, Lineweaver-Burk plot); type: biochemical, Saccharomyces cerevisiae; details: other: substrate of thymidylate kinase from yeast; FIG. 5
# Method: (§1) FIG. 4: Graphical illustration of the kinetics of conversion of thymidylate and ATP by various concentration of thymidylate kinase in the assay. In an assay volume of 50 μl, 500 μM thymidylate, 500 μM ATP, 300 μM NADH, 400 μM PEP (phosphoenol pyruvate), 0.1 U pyruvate kinase and 0.1 U lactate dehydrogenase were employed. The conversion occurred on the basis of a decrease in absorption at 340 nm due to the reaction of the released ADP with PEP and NADH to form lactate and NAD.
# (§2) FIG. 5: Lineweaver-Burk plot for determination of the KM value of dTMP (A) and ATP (B). The measured values are illustrated according to Lineweaver and Burk, i.e. 1/Vo=1/Vmax+1/S×(KM/Vmax), where Vo is the original reaction speed, Vmax is the maximum attainable reaction speed and S is the substrate concentration. Vmax and KM can then be calculated as the intercepts on the vertical axis and horizontal axis, 1/V and 1/KM. The KM value for dTMP is 0.17 mM […], the KM value for ATP is 0.16 mM […].
# (§3) A preferred method (see Example 3) makes use of the fact that an adenosine diphosphate molecule (ADP) is released during the thymidylate kinase reaction. The activity, or the increase or decrease in activity, of the polypeptide according to the invention can thus be determined via detection of the resulting ADP. […]
# [2] = substrate: Nc1ncnc2c1ncn2[C@@H]1O[C@H](COP(=O)(O)OP(=O)(O)OP(=O)(O)O)[C@@H](O)[C@H]1O; assay: as above; type: biochemical, Saccharomyces cerevisiae; details: other: substrate of thymidylate kinase from yeast; FIG. 5
# Method: as §1, §2, §3
protein,measurement,setting,value
"thymidylate kinase from yeast (Saccharomyces cerevisiae S288C) (protein, His6 (with pDest17 vector linker) (N); made in house; host or cells: E. coli BL21(DE3)pLysS) MMGRGKLILIEGLDRTGKTTQCNILYKKLQPNCKLLKFPERSTRIGGLINEYLTDDSFQLSDQAIHLLFSANRWEIVDKIKKDLLEGKNIVMDRYVYSGVAYSAAKGTNGMDLDWCLQPDVGLLKPDLTLFLSTQDVDNNAEKSGFGDERYETVKFQEKVKQTFMKLLDKEIRKGDESITIVDVTNKGIQEVEALIWQIVEPVLSTHIDHDKFSFF",Km,[1],170 µM
same,Km,[2],160 µM
